Measured values taken from publication PMC6999076, “Engineered disulfide bonds improve thermostability and activity of L‐isoleucine hydroxylase for efficient 4‐HIL production in Bacillus subtilis 168” (Engineering in Life Sciences, 2019).

Columns and labels:
[1] = substrate: CC[C@H](C)[C@H](N)C(=O)O; assay: DNFB precolumn derivatization HPLC of 4-HIL; Michaelis-Menten fit; type: biochemical, Bacillus cereus; conditions: 20 mM alpha-KG, assay: 1 mM FeSO4, 5 mM ascorbic acid, PBS pH 7.0, 30°C
Excerpt: (§1) DNFB precolumn derivatization HPLC of 4-HIL; Michaelis-Menten fit on L-isoleucine hydroxylase (IDO)

[2] = substrate: O=C(O)CCC(=O)C(=O)O; assay: as above; type: biochemical, Bacillus cereus; conditions: 20 mM L-Ile, assay: 1 mM FeSO4, 5 mM ascorbic acid, PBS pH 7.0, 30°C
Excerpt: as §1

B1: L-isoleucine hydroxylase (IDO) (Bacillus cereus ATCC 14579) (protein)
chain: MTFVLSKMNGFSIEEKVHEFESKGFLEISNEIFLQEEENHRLLTQAQLDYYNLEDDAYGECRARSYSRYIKYVDSPDYILDNSNDYFQSKEYNYDDGGKVRQFNSINDSFLCNPLIQNIVRFDTEFAFKTNIIDTSKDLIIGLHQVRYKATKERPSFSSPIWLHKDDEPVVFLHLMNLSNTAIGGDNLIANSPREINQFISLKEPLETLVFGQKVFHAVTPLGTECSTEAFRDILLVTFSYKETK
notes: full-length, 6xHis tag (downstream primer, C-terminal) kept; free cysteines C61, C112, C226; GenBank AE016877.1 is a whole-genome record (B. cereus ATCC 14579), not a gene record
Protein B1 has a Km [1] of 260 µM, a kcat [1] of 0.84 s⁻¹ and a kcat/Km [1] of 3180 M⁻¹ s⁻¹. The Km [2] was 3340 µM, the kcat [2] was 0.32 s⁻¹ and the kcat/Km [2] was 90 M⁻¹ s⁻¹.
